Assay: soluble on expression in E. coli; label from the status in PepcDB or PDB records

Sequence | soluble on expression in E. coli
MSSEWDNKIIPVIGVPLEARKLPSARIPKKPKETDGNSTETVVNSTEKPEERKEKPPKPPKQKQKQKQNLNNKFLKNLITDTGKPASMNGLFVAEEEAKLTLLEKKAMKIHIEENTLSDPQFPTYTTKHQGRIKFKCRLLWLLNKETFMKRANKPHLANIVVKQAHMEAVPPKQNVNQKKQMKNQEKNKNAKPLMDIKFDEKARSFKQRTGEDYNGGFDISSNYQGSEGSGGYQHIGNTWPNTESQWNYDPSTNGYSTFLASTPDTSTTYQPYQPSEYANFSRQLESSSSSVPVYGGATDPTQTSTSSVISFGVAVHEPISESSASAYDDPTRNHWNPQSATSDYSTVPTSGTSNVFPSYQTSEYSSFPNQTPSSSSSYQQSSQYTPMVPDLINQAINGYTTPQYNQPNQQVNQDFNTNQFSASLASLHSQPLEASEDELLRQKRLMEIEQELHMINAKKMHMQMEAEIRHREMELAKRQQLMELRERELRDRECFENGRTHAGHTGQHNYDNREYSSHHESKNPSVGGNYSSTSRSISINEDPAASHYYGQRVERKKRLGGELARRQGRVYEEVSSPGPLKRSADQSRAGSIQPAEGPSRKQRRRNNKNVQVTVNMEDISDDEEV | not soluble
MVDLEQEFALGGRCLAFHGPLMYEAKILKIWDPSSKMYTSIPNDKPGGSSQATKEIKPQKLGEDESIPEEIINGKCFFIHYQGWKSSWDEWVGYDRIRAYNEENIAMKKRLANEAKEAKKSLLEHHHHHH | soluble
SAGRGKLIAVIGDEDTVTGFLLGGIGELNKNRHPNFLVVEKDTTINEIEDTFRQFLNRDDIGIILINQYIAEMVRHALDAHQRSIPAVLEIPSKEHPYDAAKDSILRRAKGMFTAEDLR | soluble
SKGYFETNRIQHIIVDEAQNFHTEDGNWCEKAKGITQGGKACPRMFWIFLDYFQTSHLKESGLPDFELQYPKEELTQVVRNGDKIAEFLQQELGKIRDNPPCSIPRASLNIVHEFKWSQSISGTLKIKYLTSEKMVSYVANKCDVFLSKGYSPQDIAVLFSTDREKKAYEHMFLREMRKKRRASQMNDTSVCHSNMFDRIRRFSGLERSIVFGINPIATEQPISHNLLICLASRAMKYLYILYALTPEGQSSTVAC | soluble
MNDMRQITNLGRNIENKSFSIIDEEAGPHSFAQEEWEVVRRIIHATADFDYKNITKIHPQAIDSGIQALKKGCPIVCDVQMILSGLNPERLKVYGCKTYCFISDEDVIENAKRKNSTRAIESIQKANSFNLLNESIIVIGNAPTALLEIEKLIRQEGIKPALIVGVPVGFVSAKESKESILKLEYYNVTSIPYILTMGRKGGSTIAVAILHALLLLSSKRGERLEHHHHHH | soluble
VDLSDEEKDSIYMFASLVEKMKSRPLNEILEDSKLQNLAQRVFASKARLNYALNDKAQKYNTLIEMNGKISEIMNIYDRLLEQQLQSINLS | soluble
MVNGSLGSRETETSAVKMGKDNKEHKESKESKTVDNYEARMPAVLPFAKPLASKKLNKKVLKTVKKASKAKNVKRGVKEVVKALRKGEKGLVVIAGDISPADVISHIPVLCEDHSVPYIFIPSKQDLGAAGATKRPTSVVFIVPGSNKKKDGKNKEEEYKESFNEVVKEVQAL | soluble
NPYDVVVIGGGPGGYVASIKAAQLGMKTACVEKRGALGGTCLNVGCIPSKALLHATHLYHDAHANFARYGLMGGEGVTMDSAKMQQQKERAVKGLTGGVEYLFKKNKVTYYKGEGSFETAHSIRVNGLDGKQEMLETKKTIIATGSEPTELPFLPFDEKVVLSSTGALALPRVPKTMVVIGGGVIGLELGSVWARLGAEVTVVEFAPRCAPTLDEDVTNALVGALAKNEKMKFMTSTKVVGGTNNGDSVSLEVEGKNGKRETVTCEALLVSVGRRPFTGGLGLDKINVAKNERGFVKIGDHFETSIPDVYAIGDVVDKGPMLAHKAEDEGVACAEILAGKPGHVNYGVIPAVIYTMPEVASVGKSEDELKKEGVAYKVGKFPFNANSRAKAVSTEDGFVKVLVDKATDRILGVHIVCTTAGELIGEACLAMEYGASSEDVGRTCHAHPTMSEALKEACMALFAKTINF | soluble
MPRYCIVNADDFGYSKGVNYGILEAFQHGVVTSATLMANMPAAEHAARLAKEHPELGVGIHFVLTCGRPLADVPSLVNENGEFPRRGEALAGARRSDIERELAAQLERVFSLGLSPTHIDSHHHVHEHPNVFPVVEQLAERYRLPIRPVRTTRPHRLATVDVFFPDFYGDGLTKDHFLTLIDRIGDGQTAEVMCHPAYMDAPLAAGSSYCRQRIEELAVLTDPALSKEIAERGVQLITYREFYQL | not soluble

Reference: the DeepSol protein solubility set
